From patent US20250382371A1 (NATIONAL INSTITUTES OF BIOMEDICAL INNOVATION HEALTH AND …, published 2025) come the findings set out here.

In general, koff refers to the first-order rate constant of dissociation. Usually kon stands for the second-order rate constant of association.

The target in experiment [1] is T1, human FCRL1 (NCBI accession number: NP_443170.1), transiently expressed on 293T cells (human, UniProt Q96LA6 17-429).
T1 construct: also called Fc receptor-like protein 1; CD307a
T1 sequence: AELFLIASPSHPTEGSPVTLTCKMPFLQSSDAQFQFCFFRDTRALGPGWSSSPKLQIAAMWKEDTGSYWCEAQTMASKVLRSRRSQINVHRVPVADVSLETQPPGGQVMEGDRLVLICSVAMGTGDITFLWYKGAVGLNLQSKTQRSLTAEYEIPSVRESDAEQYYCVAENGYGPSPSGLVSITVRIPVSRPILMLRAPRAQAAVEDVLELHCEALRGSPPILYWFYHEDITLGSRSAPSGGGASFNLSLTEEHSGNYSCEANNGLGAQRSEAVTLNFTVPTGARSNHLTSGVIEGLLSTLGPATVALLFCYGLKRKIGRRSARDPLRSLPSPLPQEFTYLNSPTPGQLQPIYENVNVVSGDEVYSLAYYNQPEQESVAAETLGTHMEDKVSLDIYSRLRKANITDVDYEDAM
In words: flow cytometry on 293T cells transiently expressing human FCRL1; apparent KD from EC50 of a 4-parameter fit. The procedure: (§1) An antigen-specific reactivity of the novel anti-human FCRL1 mouse antibody obtained in Example 4 was evaluated by Flow Cytometry (FCM). FCRL1 antigen-expressing cells were prepared by transiently expressing the recombinant FCRL1 antigen on 293T cells. A codon-optimized cDNA was synthesized based on the amino acid sequence of human FCRL1 (NCBI accession number: NP_443170.1) or cynomolgus monkey FCRL1 (XP_015310712), and a fragment in which the sequence of an internal ribosome entry site (IRES) derived from the encephalomyocarditis virus (EMCV) and the sequence of TagBFP were arranged in tandem was cloned into pcDNA 3.1hygro to construct an expression plasmid vector for human FCRL1 or cynomolgus monkey FCRL1. The purified expression vector was transfected into 293T cells, cells were collected 2 days after transfection, and binding with each antibody was confirmed by FCM.
(§2) As the secondary antibody, when the sample is a mouse antibody, R-Phycoerythrin (PE) F(ab′)₂ Fragment Goat Anti-Mouse IgG (H+L) (Jackson ImmunoResearch) was used, and when the sample is a human antibody or a human chimeric antibody, R-Phycoerythrin (PE) F(ab′)₂ Fragment Goat Anti-Human IgG, Fcγ Fragment Specific (Jackson ImmunoResearch) was used. A solution of each secondary antibody was prepared by diluting the stock solution 200 times with an FCM buffer. After washing once, cells in each well were suspended with 100 μL of FCM buffer, and binding to each antibody was confirmed by flow cytometry (FCM).
(§3) Cells that transiently expressed human FCRL1 or cynomolgus monkey FCRL1 were reacted with a 3-fold dilution series of each antibody starting from 100 nM (15 μg/ml) at 12 points. Data obtained by the FCM was analyzed, and a binding amount of each antibody bound to the cell was calculated as a fluorescence amount MFI derived from the PE-labeled secondary antibody. An antibody concentration and the measured MFI were plotted with respect to a logarithm of the antibody concentration, a saturated binding curve of each antibody was obtained, and regression was performed by a 4-parameter logistic model.
In general terms: Flow cytometry measures light scatter and fluorescence of single cells or particles in a stream.

For experiment [2], the target named is T2, cynomolgus monkey FCRL1 (XP_015310712), transiently expressed on 293T cells (cynomolgus monkey).
T2 chain: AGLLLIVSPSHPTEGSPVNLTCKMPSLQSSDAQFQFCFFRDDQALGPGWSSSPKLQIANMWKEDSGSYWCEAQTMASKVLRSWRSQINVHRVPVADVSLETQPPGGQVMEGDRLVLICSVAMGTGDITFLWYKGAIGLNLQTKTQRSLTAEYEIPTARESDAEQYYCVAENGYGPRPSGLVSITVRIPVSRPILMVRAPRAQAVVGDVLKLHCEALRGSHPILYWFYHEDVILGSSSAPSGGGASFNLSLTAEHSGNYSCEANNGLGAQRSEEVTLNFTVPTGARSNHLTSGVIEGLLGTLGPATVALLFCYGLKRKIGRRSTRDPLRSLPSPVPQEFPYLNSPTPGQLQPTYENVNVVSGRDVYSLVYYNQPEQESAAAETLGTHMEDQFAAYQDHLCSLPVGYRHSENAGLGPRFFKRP
As to the kind of experiment: flow cytometry on 293T cells transiently expressing cynomolgus monkey FCRL1; apparent KD from EC50 of a 4-parameter fit. The procedure:
as §1, §2, §3

The target in experiment [3] is T3, hFCRL1/FcRH1-His (manufactured by R&D Systems) (human, UniProt Q96LA6 17-307).
T3 construct: Bought His-tagged recombinant human FCRL1; The protein in the assay is soluble and is probably only the extracellular part; not shown: His tag
T3 sequence: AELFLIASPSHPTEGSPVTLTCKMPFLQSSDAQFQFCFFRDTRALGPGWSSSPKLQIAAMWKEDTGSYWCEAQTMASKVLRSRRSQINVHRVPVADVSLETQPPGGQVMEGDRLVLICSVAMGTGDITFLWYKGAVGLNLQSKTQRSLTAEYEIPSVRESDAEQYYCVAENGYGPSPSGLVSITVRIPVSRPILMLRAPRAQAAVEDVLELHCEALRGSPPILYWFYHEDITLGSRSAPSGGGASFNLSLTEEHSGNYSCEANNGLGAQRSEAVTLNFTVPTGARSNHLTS
In words: SPR (Biacore 8K+), antibody captured by anti-human IgG, hFCRL1/FcRH1-His as analyte; Steady state affinity model. The method, then: (§4) For the purpose of comparing the binding activity of the DK681 chimeric antibody (chDK681) and the DK1142 chimeric antibody (chDK1142) obtained by connecting […] of the DK681 and DK1142 mouse antibodies obtained in Example 4 to a human IgG1 (S239C) constant region with the binding activity of the anti-FCRL1 humanized antibody obtained in Example 10 to human FCRL1, the binding activity to hFCRL1/FcRH1-His (manufactured by R&D Systems) was measured by a surface plasmon resonance method (SPR method) using Biacore8K+ (manufactured by Cytiva).
(§5) The binding activity of the anti-FCRL1 antibody was measured as follows. An anti-human IgG antibody was immobilized on a CM5 sensor chip (manufactured by Cytiva) in accordance with the attached protocol using a Human Antibody Capture Kit (manufactured by Cytiva). An anti-FCRL1 antibody prepared at 5 μg/mL was added to a flow cell on which the Anti-human IgG antibody was immobilized at a flow rate of 10 μL/min for 30 seconds.
(§6) Next, hFCRL1/FcRH1-His, which is prepared stepwise to 5 concentrations by 3-fold dilution from 10000 ng/ml, was monitored at a flow rate of 30 μL/min for a binding reaction for 180 seconds and a dissociation reaction for 400 seconds. For the obtained sensorgram, a kinetic constant of each antibody was calculated by fitting by a Steady state affinity model or a 1:1 Binding model using Bia Evaluation Software (manufactured by Cytiva). The calculated binding rate constant (ka), dissociation rate constant (kd) and dissociation constant [KD] of each antibody are shown in Table 5. The chDK681 is referred to as DK681 F01, and the chDK1142 is referred to as DK1142 F02.

In experiment [4] the target is T3, hFCRL1/FcRH1-His (manufactured by R&D …). As to the kind of experiment: SPR (Biacore 8K+), antibody captured by anti-human IgG, hFCRL1/FcRH1-His as analyte; 1:1 Binding model. The procedure: as §4, §5, §6
Background: Surface plasmon resonance follows binding to a sensor surface in real time, without labels.

B1: anti-human FCRL1 mouse monoclonal antibody DK681 (antibody, V domains shown)
VH: QVQLQQPGAELVKPGTSVKLSCKASGYTFTRYWMHWVKQRPGQGLEWIGRIDPNSGGSKYNEKFKSKATLTVDKTSSSAYMQLNSLTSEDSAVYYCTRVNSGAMDYWGQGTSVTVSS
VL: DIVMSQSPSSLAVSVGEKVTMSCKSSQSLLYSSNQKNYLAWYQQKPGQSPKLLIYWASTRESGVPDRFTGSGSGTDFTLTISSVKAEDLAIYYCQQYSNYPTFGSGTKLEIK
Turning to B1, the Kd in experiment [1] is 1 nM; in experiment [2] it was 0.8 nM.

B2: DK681 humanized antibody DK681 F12, human IgG1 (S239C) (antibody)
heavy: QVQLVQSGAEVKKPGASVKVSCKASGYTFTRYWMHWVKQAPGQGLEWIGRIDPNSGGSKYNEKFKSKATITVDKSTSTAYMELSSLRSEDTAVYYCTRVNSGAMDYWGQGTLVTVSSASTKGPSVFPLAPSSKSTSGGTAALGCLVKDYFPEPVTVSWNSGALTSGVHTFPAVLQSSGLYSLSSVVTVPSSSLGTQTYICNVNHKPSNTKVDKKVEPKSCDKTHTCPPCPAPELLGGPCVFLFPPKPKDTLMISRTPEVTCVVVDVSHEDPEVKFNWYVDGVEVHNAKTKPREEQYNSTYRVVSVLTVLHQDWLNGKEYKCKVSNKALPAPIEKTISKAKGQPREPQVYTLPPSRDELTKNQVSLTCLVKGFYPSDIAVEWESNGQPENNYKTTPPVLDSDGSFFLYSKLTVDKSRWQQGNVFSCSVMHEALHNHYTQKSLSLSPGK
light: DIVMTQSPDSLAVSLGERATMNCKSSQSLLYSSNQKNYLAWYQQKPGQSPKLLIYWASTRESGVPDRFSGSGSGTDFTLTISSLQAEDVAIYYCQQYSNYPTFGQGTKVEIK
With B2, in experiment [3], the Kd was 9.15 nM, the koff turned out to be 0.00259 s⁻¹ and the on-rate (kon) was 385000 M⁻¹ s⁻¹.

B3: DK681 humanized antibody DK681 F13, human IgG1 (S239C) (antibody)
heavy: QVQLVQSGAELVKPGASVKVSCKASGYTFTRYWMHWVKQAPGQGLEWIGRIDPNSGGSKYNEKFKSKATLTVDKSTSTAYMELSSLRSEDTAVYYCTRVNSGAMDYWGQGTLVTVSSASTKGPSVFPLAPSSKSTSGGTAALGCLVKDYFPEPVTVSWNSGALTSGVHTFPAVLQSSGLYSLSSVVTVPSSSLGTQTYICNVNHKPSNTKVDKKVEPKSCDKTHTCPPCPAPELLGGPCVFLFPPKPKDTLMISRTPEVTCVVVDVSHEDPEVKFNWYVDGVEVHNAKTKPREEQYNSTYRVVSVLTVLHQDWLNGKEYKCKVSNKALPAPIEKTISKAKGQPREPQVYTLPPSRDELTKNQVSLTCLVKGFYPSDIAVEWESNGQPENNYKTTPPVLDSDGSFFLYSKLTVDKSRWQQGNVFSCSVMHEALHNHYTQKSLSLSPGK
light: DIVMTQSPDSLAVSLGERATMNCKSSQSLLYSSNQKNYLAWYQQKPGQSPKLLIYWASTRESGVPDRFSGSGSGTDFTLTISSLQAEDVAIYYCQQYSNYPTFGQGTKVEIK
Regarding B3, in experiment [3], the Kd amounted to 9.84 nM, the koff was determined as 0.00297 s⁻¹ and the kon amounted to 387000 M⁻¹ s⁻¹.

B4: anti-human FCRL1 mouse monoclonal antibody DK1141 (antibody, V domains shown)
VH: EVRLVESGGRLVQPKGSLRLSCAVSGFTFNTYAMYWIRQAPGKGLEWVARIRSKTNNFATYYADSVKDRFTISRDDSQSMLYLQMNNLKTEDTAMYYCVRDNSGSFDYWGQGTTLTVSS
VL: DIVMAQSPSSLAVSVGEKVTMSCKSSQSLLHSSNQKNYLAWYQQKPGQSPNLLIYWASSRESGVPDRFTGSGSGTDFTLTISSVQAEDLATYYCQQYYSYPTFGAGTKLDLK
With B4, the Kd turned out to be 1.6 nM in experiment [1] and 0.8 nM in experiment [2].

B5: DK1142 humanized antibody DK1142 F22, human IgG1 (S239C) (antibody)
heavy: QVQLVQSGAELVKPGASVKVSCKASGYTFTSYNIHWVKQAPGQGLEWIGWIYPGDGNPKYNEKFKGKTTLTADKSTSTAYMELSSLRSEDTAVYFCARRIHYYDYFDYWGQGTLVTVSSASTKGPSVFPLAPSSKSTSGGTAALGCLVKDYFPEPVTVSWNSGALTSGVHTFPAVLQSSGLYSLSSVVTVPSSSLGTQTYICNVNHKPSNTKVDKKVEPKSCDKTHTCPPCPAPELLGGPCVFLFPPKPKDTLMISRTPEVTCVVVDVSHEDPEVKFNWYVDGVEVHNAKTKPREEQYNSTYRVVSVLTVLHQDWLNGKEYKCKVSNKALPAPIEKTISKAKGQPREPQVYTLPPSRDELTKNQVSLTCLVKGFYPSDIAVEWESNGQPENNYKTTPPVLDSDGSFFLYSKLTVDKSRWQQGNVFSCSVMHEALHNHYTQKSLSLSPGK
light: DIVMTQSPLSLPVTLGEPASISCRSSQSIVHSNGNTYLEWYLQKPGQSPQLLIYKVSNRFSGVPDRFSGSGSGTDFTLKISRVEAEDVGVYYCFQGSHVPWTFGQGTKVEIK
In experiment [4], B5 displayed a Kd of 11.1 nM, an off-rate constant (koff) of 0.0428 s⁻¹ and a kon of 3.85e+06 M⁻¹ s⁻¹.

B6: DK1142 humanized antibody DK1142 F21, human IgG1 (S239C) (antibody)
heavy: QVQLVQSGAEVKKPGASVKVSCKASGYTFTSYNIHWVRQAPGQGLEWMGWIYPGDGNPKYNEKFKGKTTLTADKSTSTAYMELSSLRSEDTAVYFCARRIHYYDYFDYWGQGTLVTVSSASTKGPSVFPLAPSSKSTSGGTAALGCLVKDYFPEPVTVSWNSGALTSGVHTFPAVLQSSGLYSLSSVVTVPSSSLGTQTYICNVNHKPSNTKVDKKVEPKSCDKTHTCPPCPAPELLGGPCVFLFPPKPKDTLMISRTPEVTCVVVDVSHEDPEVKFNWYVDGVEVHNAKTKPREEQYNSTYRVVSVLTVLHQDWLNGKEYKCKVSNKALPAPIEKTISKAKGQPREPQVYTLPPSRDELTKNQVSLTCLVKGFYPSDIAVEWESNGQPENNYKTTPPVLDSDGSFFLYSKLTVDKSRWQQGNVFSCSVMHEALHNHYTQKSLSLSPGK
light: DIVMTQSPLSLPVTLGEPASISCRSSQSIVHSNGNTYLEWYLQKPGQSPQLLIYKVSNRFSGVPDRFSGSGSGTDFTLKISRVEAEDVGVYYCFQGSHVPWTFGQGTKVEIK
Take B6: in experiment [4], the Kd came out at 12.8 nM, the koff turned out to be 0.0686 s⁻¹ and the kon was found to be 5.36e+06 M⁻¹ s⁻¹.

B7: DK1142 humanized antibody DK1142 F24, human IgG1 (S239C) (antibody)
heavy: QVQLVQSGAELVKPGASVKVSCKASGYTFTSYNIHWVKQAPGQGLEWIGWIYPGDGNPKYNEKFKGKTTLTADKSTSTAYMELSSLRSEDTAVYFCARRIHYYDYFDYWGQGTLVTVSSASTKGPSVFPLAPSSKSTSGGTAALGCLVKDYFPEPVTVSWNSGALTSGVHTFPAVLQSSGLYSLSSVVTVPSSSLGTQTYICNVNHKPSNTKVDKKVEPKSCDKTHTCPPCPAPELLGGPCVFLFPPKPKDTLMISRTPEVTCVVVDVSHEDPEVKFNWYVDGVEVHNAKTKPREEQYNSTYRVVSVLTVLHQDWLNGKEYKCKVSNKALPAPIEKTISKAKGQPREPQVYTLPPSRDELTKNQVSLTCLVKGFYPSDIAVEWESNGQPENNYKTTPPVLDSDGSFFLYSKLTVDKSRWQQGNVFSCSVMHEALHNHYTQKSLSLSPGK
light: DVVMTQSPLSLPVTLGEPASISCRSSQSIVHSNGNTYLEWYLQKPGQSPKLLIYKISNRFSGVPDRFSGSGSGTDFTLKISRVEAEDVGVYYCFQGSHVPWTFGQGTKVEIK
Consider B7, for which, in experiment [4], the Kd turned out to be 12.2 nM, the dissociation rate constant (koff) was 0.0274 s⁻¹ and the kon was found to be 2.24e+06 M⁻¹ s⁻¹.

B8: anti-human FCRL1 mouse monoclonal antibody DK1142 (antibody, V domains shown)
VH: QVQLQQSGPELVKPGASVRISCKASGYTFTSYNIHWVKQRPGQGLEWIGWIYPGDGNPKYNEKFKGKTTLTADKSSSTAYMQLSSLTSEDSAVYFCARRIHYYDYFDYWGQGTTLTVSS
VL: DVLMTQTPLSLPVSLGDQASISCRSSQSIVHSNGNTYLEWYLQKPGQSPKLLIYKVSNRFSGVPDRFSGSGSGTDFTLKISRVEADDLGVYYCFQGSHVPWTFGGGTKLEIK
Regarding B8, the Kd in experiment [1] was 1.4 nM; in experiment [2] it was 1.1 nM.

B9: DK1142 chimeric antibody (chDK1142), human IgG1 (S239C) (antibody)
heavy: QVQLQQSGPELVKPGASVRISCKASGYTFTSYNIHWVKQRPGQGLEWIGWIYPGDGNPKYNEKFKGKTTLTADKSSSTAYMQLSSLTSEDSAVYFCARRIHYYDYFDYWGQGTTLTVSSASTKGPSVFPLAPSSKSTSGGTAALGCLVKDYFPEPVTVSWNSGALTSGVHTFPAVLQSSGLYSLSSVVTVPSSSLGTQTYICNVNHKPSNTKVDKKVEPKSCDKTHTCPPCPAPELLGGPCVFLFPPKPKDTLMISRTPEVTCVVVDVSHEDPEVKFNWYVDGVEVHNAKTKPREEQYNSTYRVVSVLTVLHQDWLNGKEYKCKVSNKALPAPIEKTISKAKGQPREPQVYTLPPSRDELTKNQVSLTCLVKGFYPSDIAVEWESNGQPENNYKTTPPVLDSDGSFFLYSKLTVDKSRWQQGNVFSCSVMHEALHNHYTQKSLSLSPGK
light: DVLMTQTPLSLPVSLGDQASISCRSSQSIVHSNGNTYLEWYLQKPGQSPKLLIYKVSNRFSGVPDRFSGSGSGTDFTLKISRVEADDLGVYYCFQGSHVPWTFGGGTKLEIK
notes: also called DK1142 F02; not shown: human kappa light chain constant region (pFUSE2-CLIg-hk vector)
In experiment [4], B9 returned a Kd of 11.4 nM, an off-rate constant (koff) of 0.0518 s⁻¹ and a kon of 4.55e+06 M⁻¹ s⁻¹.

B10: anti-human FCRL1 mouse monoclonal antibody DK1166 (antibody, V domains shown)
VH: QVQLQQSGPELVKPGASVRISCKASGYTFTSYNIHWVKQRPGQGLEWIGWIYPGDGNTKYNEKFKGKTTLTADKSSSTAYMQLSSLTSEDSAVYFCARRIHYFDYFDYWGQGTTLTLSS
VL: DVLMTQTPLSLPVSLGDQVSISCRSGQTIVHSNGNTYLEWYLQKPGQSPKLLIYKVSNRFSGVPDRFSGSGSGTDFTLRISRVEAEDLGVYYCFQGSHVPWTFGGGTKLEIK
On to B10, for which the values for the Kd in experiment [1] and in experiment [2] were 1.5 nM and 1 nM, respectively.

B11: anti-human FCRL1 mouse monoclonal antibody DK1164 (antibody, V domains shown)
VH: QVQLQQSGTELVRPGTSVKVSCKASGYAFTNYLIEWVKQRPGQGLEWIGVINPGSGGTDYNKKFKGKAMLTADKSSNTAYMQLSSLTSDDSAVYFCARSNSYAMDYWGQGTSVTVSS
VL: DIVMSQSPSSLAVSVGEKVTVSCKSSQSLLYSGNQKNNLAWYKQKPGQSPKLLIYWASTRESGVPDRFTGSGSGTDFTLTMSSVKAEDLAVYYCQQYYSYPWTFGGGTKLEIK
Regarding B11, the Kd in experiment [1] came out at 2.3 nM; in experiment [2], 1.4 nM.
